Source: US20210284724A1 (I MAB BIOPHARMA US, published 2021)
Positions count from the first letter of the chain named.

B1: 414D10F5 (antibody, V domains shown)
VH: EVQLAESGGGLVQPGRSLKLSCSASGFTFSDYYMAWFRQAPPKGLEWVASISYDGGDSFYRDSVKGRFTISRDNAKSSLYLQMDSLRSEDTATYYCTTEEDYSGSFPDYWGQGVMVTVSS
VL: DIQMTQSPSFLSASVGDRVTINCKASQNINKYLNWYQQKLGEAPKRLIYDTNNLQAGIPSRFSGSGSGTDYTLTINSLQPEDFATYFCLQHNSLYTFGGGTKLELK
notes: Hybridoma mAb
B2: 430D9B3 (antibody, V domains shown)
VH: QVTLKESGPEILQPSQTLSLTCTFSGFSLSPYGMGVGWIRQPSGKGLEWLANIWWDDDKYYNPSLINRLTISKDTSNNQAFLKITNVDTTDSATYYCVRSELVMPYVPFDYWGQGVMVTVSS
VL: DIQMTQSPSSMSASLGDRVTITCQASQDIENDLIWFQQKPGKSPRPLIYYATNLANGVPSRFSGRRSESNYSLTISSLESEDMADYHCLQFKQYPYTFGAGTKLELK
notes: Hybridoma mAb
B3: 416C9H8 (antibody, V domains shown)
VH: B2 VH
VL: B2 VL with I34V, K42R, N70D
notes: Hybridoma mAb
B4: 424H7F2 (antibody, V domains shown)
VH: B2 VH with S19T
VL: B2 VL with S72A
notes: Hybridoma mAb; also called surrogate anti-CXCL13 antibody
B5: 445A6G7 (antibody, V domains shown)
VH: B2 VH
VL: B2 VL with E30G
notes: Hybridoma mAb
B6: 423A6H6 (antibody, V domains shown)
VH: B2 VH with E10G, P31T, I66Q, T90A, S92T, V98A, V103I, M117R
VL: B2 VL with E30D, D32H, L47M, R65S, E68G, N70D, Y96F, A100S, L106I
notes: Hybridoma mAb
B7: 402H2G12 (antibody, V domains shown)
VH: B2 VH with E10G, P31T, I66Q, T85N, T90A, S92T, V98A, V103I, M117R
VL: B2 VL with E30D, D32H, L47M, R65S, E68G, N70D, Y96F, A100S, L106I
notes: Hybridoma mAb
B8: 427C4F11 (antibody, V domains shown)
VH: QVTLKESGPGILQPSQTLSLTCTFSGFSLTTYGMGVGWIRQPSGKGLEWLANIWWDDDKYSNPSLQSRLTISKDTSNNQAFLTITNVDTADTATYYCARSELVMPYVPFDYWGQGVRVTVSS
VL: B2 VL with E30D, D32H, K42R, L47M, R65S, E68G, N70D, Y96F, A100S, L106I
notes: Hybridoma mAb
B9: 432C12E1 (antibody, V domains shown)
VH: B2 VH with E10G, P31T, I66K, T90A, S92T, V98A, L102I
VL: B2 VL with E30G, L47M, R65S, R66G, E68G, N70V, Y96F, A100S, L106I
notes: Hybridoma mAb
B10: 418D3H6 (antibody, V domains shown)
VH: B2 VH with E10G, P31T, D74N, T89A, T90P, S92T, V98A, Y111F, V116I
VL: DIQMTQSPSSLSASLGDRITMTCQASQDIGIELIWFQQKPGKSPWPVIYYTANLASGVPSRFSGSRSGSHYSLTISSLESEDMADYHCLQYKQYPFTFGSGTKLEIK
notes: Hybridoma mAb
B11: 442C9H4 (antibody, V domains shown)
VH: B2 VH with E10G, T23S, P31T, D74N, T89A, T90P, S92T, V98A, Y111F, V116I
VL: B10 VL with M21I, E32D
notes: Hybridoma mAb

Columns and labels:
human CXCL13 [1] = target: T1, human CXCL13 (human, UniProt O43927 23-109); assay: cell-based blocking ELISA, CXCL13 to CHO-K1-CXCR5
T1 construct: also called huCXCL13; rhCXCL13
T1 sequence (looked up): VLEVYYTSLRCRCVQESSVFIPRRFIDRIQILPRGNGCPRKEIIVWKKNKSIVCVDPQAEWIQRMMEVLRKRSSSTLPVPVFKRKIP
Procedure: Splenocytes were electro-fused with mouse myeloma cell line SP2/0 cells and plated into 96-well culture plate. The hybridoma supernatants were tested by ELISA binding assay for anti-human CXCL13 binders. Supernatants of positive binding clones were screened for function in blocking of human CXCL13 binding to its […] CXCR5 by Cell-based receptor blocking ELISA assay. Briefly, 5×10⁴ CHO-K1-CXCR5 cells were plated in 96-well plate with 100 μl of culture medium and incubated at 37° C. overnight. Cells were fixed with 100 μl of 2% PFA at RT for 1 hr after washing with PBS for 1 time. Blocking was done with 1% BSA in PBST for 1 hr at RT. Supernatants were diluted with PBS and pre-incubated with equal volume of 0.3 μg/ml human CXCL13 for 30 min at RT. 100 μl of antibody-antigen complex was then transferred into each cell wells for 30 min at RT. The samples were washed with 1×PBST for 3 times and 100 μl of 3 μg/ml of human Mab5261 antibody was add into each well to capture human CXCL13 and anti-human Fc-HRP was used to indirectly detect human CXCL13 when it bound to CHO-K1-CXCR5 cells. […] Reading was done at […].
Those antibodies were purified from hybridoma supernatants by binding with Protein G column and characterized by ELISA binding assays and cell-based blocking ELISA assays. […] 11/20 clones bound to both human CXCL13 and cynomolgus CXCL13 appeared to completely block human CXCL13 to human CXCR5. 11 blockers bound to both huCXCL13 and cynoCXCL13 were produced as chimeric human IgG1 antibodies for further Characterization.

cynomolgus CXCL13 = target: T2, cynomolgus CXCL13 (cynomolgus, UniProt H6WS58 23-109); assay: ELISA, coated antigen
T2 construct: also called cynoCXCL13; Cyno CXCL13
T2 sequence: T1 sequence (looked up) with S8H, L32S, I52V, M65I, V68M, R72K, L77P

human CXCL13 [2] = target: T1, human CXCL13; assay: ELISA, coated antigen
mouse CXCL13 = target: T3, mouse CXCL13 (mouse, UniProt O55038 22-109); assay: ELISA, coated antigen
T3 construct: also called rmCXCL13
T3 sequence (looked up): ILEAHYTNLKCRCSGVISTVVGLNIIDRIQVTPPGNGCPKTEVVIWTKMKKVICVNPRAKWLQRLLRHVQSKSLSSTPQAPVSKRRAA

Binder | IC50 (human CXCL13 [1]) [µg/mL] | EC50 (cynomolgus CXCL13) [µg/mL] | EC50 (human CXCL13 [2]) [µg/mL] | binding result (mouse CXCL13) | binding result (cynomolgus CXCL13) | EC50 (mouse CXCL13) [µg/mL]
B1 | 1.14 | 0.019 | 0.0104 | no binding | – | –
B2 | 3.85 | – | 0.0265 | – | no binding | 0.0547
B3 | 8.46 | – | 5.84 | – | no binding | 1.97
B4 | 1.1 | – | 0.0109 | – | no binding | 0.0121
B5 | 14.9 | – | 2.91 | – | no binding | 1.23
B6 | 8.96 | – | 1.56 | – | no binding | 0.248
B7 | 8.72 | – | 0.00578 | – | no binding | 0.0357
B8 | 7.92 | – | 1.33 | – | no binding | 0.202
B9 | 12.7 | – | 5.1 | – | no binding | 0.744
B10 | 23.3 | – | 48.7 | – | no binding | 7.49
B11 | 18.2 | – | 9.85 | – | no binding | 2.96
